One block for each binder: values may come before it.
Experiments:
Assay in all cases: pull-down
Lsm6/5/7 = Lsm6/5/7 (human, UniProt P62312;Q9Y4Y9;Q9UK45)
SmF/E/G = SmF/E/G (human, UniProt P62306;P62304;P62308)
SmD1/D2 = SmD1/D2 (human, UniProt P62314;P62316)

Chain of Lsm6/5/7 (Q9Y4Y9 whole entry, chain 2 of 2): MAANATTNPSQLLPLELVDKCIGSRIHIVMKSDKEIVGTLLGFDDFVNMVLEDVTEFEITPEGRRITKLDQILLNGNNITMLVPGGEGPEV
Chain of Lsm6/5/7 (Q9UK45 whole entry, chain 3 of 2): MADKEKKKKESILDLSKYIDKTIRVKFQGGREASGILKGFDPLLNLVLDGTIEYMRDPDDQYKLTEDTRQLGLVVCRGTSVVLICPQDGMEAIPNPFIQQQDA

- binding result (Lsm6/5/7): binds
B1: Lsm2/3 (complex)
chain 1: MLFYSFFKSLVGKDVVVELKNDLSICGTLHSVDQYLNIKLTDISVTDPEKYPHMLSVKNCFIRGSVVRYVQLPADEVDTQLLQDAARKEALQQKQ
chain 2: not shown

- binding result (SmF/E/G): binds
- binding result (SmD1/D2): binds
B2: His-tagged Gemin2/MBP-SMN(26-62) (complex)
chain 1: FDPSVPPRTPQEYLRRVQIEAAQCPDVVVAQIDPKKLKRKQSVNISLSGCQPAPEGYSPTLQWQQQQVAQFSTVRQNVNKHRSHWKSQQLDSNVTMPKSEDEEGWKKFCLGEKLCADGAVGPATNESPGIDYVQIGFPPLLSIVSRMNQATVTSVLEYLSNWFGERDFTPELGRWLYALLACLEKPLLPEAHSLIRQLARRCSEVRLLVDSKDDERVPALNLLICLVSRYFDQRDLADEPS
chain 2: GQSDDSDIWDDTALIKAYDKAVASFKHALKNGDICET
